According to patent US20220175942A1 (published 2022):
Where two headings read alike, the source gives them in different places.

T1: CCL4 (human, UniProt P13236 24-92)
T1 chain: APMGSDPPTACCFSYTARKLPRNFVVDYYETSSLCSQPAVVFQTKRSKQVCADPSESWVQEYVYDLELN

T2: CCL15_HUMAN (human, UniProt Q16663 22-113)
T2 chain: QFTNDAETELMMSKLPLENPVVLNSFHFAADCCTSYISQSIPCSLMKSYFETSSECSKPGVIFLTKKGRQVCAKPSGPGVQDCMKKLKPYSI

T3: CCL8_HUMAN (human, UniProt P80075 24-99)
T3 chain: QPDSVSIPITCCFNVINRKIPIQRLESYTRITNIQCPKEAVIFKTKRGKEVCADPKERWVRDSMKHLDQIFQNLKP

T4: CCL19_HUMAN (human, UniProt Q99731 22-98)
T4 chain: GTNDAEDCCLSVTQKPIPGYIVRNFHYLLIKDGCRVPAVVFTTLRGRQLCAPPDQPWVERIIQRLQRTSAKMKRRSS

T5: CCL17_HUMAN (human, UniProt Q92583 24-94)
T5 chain: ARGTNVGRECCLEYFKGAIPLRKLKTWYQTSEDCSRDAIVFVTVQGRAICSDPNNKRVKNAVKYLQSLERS

T6: CCL5_HUMAN (human, UniProt P13501 24-91)
T6 chain: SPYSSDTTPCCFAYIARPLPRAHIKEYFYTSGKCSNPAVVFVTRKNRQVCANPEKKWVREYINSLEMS

T7: CCL1_HUMAN (human, UniProt P22362 24-96)
T7 chain: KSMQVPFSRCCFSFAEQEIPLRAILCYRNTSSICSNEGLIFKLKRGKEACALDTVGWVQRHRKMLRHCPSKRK

B1: P991_AMBCA (other)
chain: ENGEGTTQPDYDNSTDYYNYEDFKCTCPAPHLNNTNGTVMKPIGCYYTCNVTRCTAPDTYPCYNLTEHQAKNLTTSPTTLCAVGNCDHGICVPNGTKELCFKAPNLEE
B2: P1243_AMBAM (other)
chain: RNHTEDNSTEYYDYEEARCACPARHLNNTNGTVLKLLGCHYFCNGTLCTAPDGYPCYNLTAQQVRTLTTYPNTSCAVGVCMKGTCVKNGTMEQCFKTP
B3: CCL18_HUMAN (ligand)
chain: AQVGTNKELCCLVYTSWQIPQKFIVDYSETSPQCPKPGVILLTKRGRQICADPNKKWVQKYISDLKLNA
B4: CCL3_HUMAN (ligand)
chain: SLAADTPTACCFSYTSRQIPQNFIADYFETSSQCSKPGVIFLTKRSRQVCADPSEEWVQKYVSDLELSA
B5: P1156_IXORI (other)
chain: ADDDNELFTVQYCGMNCTKDEGGTWTGCTGKKEGCKCYHESGKNYGLCLSTEYTDFSQYGNPSDSEIEAAKPKRSDTLSH
B6: CCL22_HUMAN (ligand)
chain: GPYGANMEDSVCCRDYVRYRLPLRVVKHFYWTSDSCPRPGVVLLTFRDKEICADPRVPWVKMILNKLSQ
B7: CCL25_HUMAN (ligand)
chain: QGVFEDCCLAYHYPIGWAVLRRAWTYRIQEVSGSCNLPAAIFYLPKRHRKVCGNPKSREVQRAMKLLDARNKVFAKLHHNTQTFQAGPHAVKKLSSGNSKLSSSKFSNPISSSKRNVSLLISANSGL
B8: P943_IXORI (other)
chain: RSKQPTASQSSKNSIKAEFCDTNCTQGTNGAWSGCSEGCFCVHVGNNTKGRCMKLSSDYDYTTQ

Legend:
CCL22_HUMAN = molecular target: B6; experiment: BLI
CCL18_HUMAN = molecular target: B3; experiment: BLI
CCL4 = molecular target: T1, CCL4; experiment: BLI
CCL15_HUMAN = molecular target: T2, CCL15_HUMAN; experiment: BLI
CCL11_HUMAN = CCL11_HUMAN (human, UniProt P51671 24-97); experiment: BLI
CCL8_HUMAN = molecular target: T3, CCL8_HUMAN; experiment: BLI
CCL19_HUMAN = molecular target: T4, CCL19_HUMAN; experiment: BLI
CCL3_HUMAN = molecular target: B4; experiment: BLI
CCL2_HUMAN = CCL2_HUMAN (human, UniProt P13500 24-99); experiment: BLI
CCL17_HUMAN = molecular target: T5, CCL17_HUMAN; experiment: BLI
CCL5_HUMAN = molecular target: T6, CCL5_HUMAN; experiment: BLI
CCL4L1_HUMAN = experiment: BLI
CCL14_HUMAN = experiment: BLI
CCL3L1_HUMAN = experiment: BLI
CCL7_HUMAN = experiment: BLI
CCL13_HUMAN = experiment: BLI
CCL16_HUMAN = experiment: BLI
CCL27_HUMAN = experiment: BLI
CCL24_HUMAN = experiment: BLI
CCL23_HUMAN = experiment: BLI
CCL1_HUMAN = molecular target: T7, CCL1_HUMAN; experiment: BLI
CCL20_HUMAN = CCL20_HUMAN (human, UniProt P78556 27-96); experiment: BLI
CCL21_HUMAN = experiment: BLI
EVASIN1 = experiment: -; previously described evasin
EVASIN4 [1] = experiment: -; previously described evasin
CXCL3_HUMAN [2] = experiment: BLI
CXCL1_HUMAN [3] = experiment: BLI
CXCL8_HUMAN = CXCL8_HUMAN (human, UniProt P10145 28-99); experiment: BLI
EVASIN4 [4] = experiment: -; previously described evasin; remark: listed apart in the source
CXCL3_HUMAN [5] = experiment: BLI; remark: listed apart in the source
CXCL1_HUMAN [6] = experiment: BLI; remark: listed apart in the source

Sequence of CCL11_HUMAN (P51671 24-97): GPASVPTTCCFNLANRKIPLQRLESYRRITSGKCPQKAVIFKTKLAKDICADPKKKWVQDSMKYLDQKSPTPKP
Sequence of CCL20_HUMAN (P78556 27-96): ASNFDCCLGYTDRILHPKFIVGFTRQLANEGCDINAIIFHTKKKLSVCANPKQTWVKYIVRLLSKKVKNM
Sequence of CCL2_HUMAN (P13500 24-99): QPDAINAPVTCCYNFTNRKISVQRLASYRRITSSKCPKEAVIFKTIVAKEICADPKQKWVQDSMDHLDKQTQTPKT
Sequence of CXCL8_HUMAN (P10145 28-99): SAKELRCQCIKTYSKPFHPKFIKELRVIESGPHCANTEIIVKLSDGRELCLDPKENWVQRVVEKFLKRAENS

In the case of B1, the Kd (CCL22_HUMAN) is reported as 3.97 nM, the Kd (CCL18_HUMAN) is reported as 0.209 nM and the Kd (CCL4) is reported as 5.82 nM. For the same binder, the Kd (CCL15_HUMAN) was 159 nM, the Kd (CCL11_HUMAN) was 3.43 nM and the Kd (CCL8_HUMAN) was 8.79 nM. For the same binder, the Kd (CCL19_HUMAN) was 14.4 nM, the Kd (CCL3_HUMAN) was 1.08 nM and the Kd (CCL2_HUMAN) was 12.2 nM. It also gave a Kd (CCL17_HUMAN) of 7.66 nM, a Kd (CCL5_HUMAN) of 1.47 nM and a Kd (CCL4L1_HUMAN) of 0.827 nM. For the same binder, the Kd (CCL14_HUMAN) was 0.43 nM, the Kd (CCL3L1_HUMAN) was 1.4 nM and the Kd (CCL7_HUMAN) was 0.514 nM. It also gave a Kd (CCL13_HUMAN) of 0.419 nM, a Kd (CCL16_HUMAN) of 1.28 nM and a Kd (CCL27_HUMAN) of 38.9 nM. It also gave a Kd (CCL24_HUMAN) of 6.54 nM and a Kd (CCL23_HUMAN) of 5.58 nM.

With B2 the Kd (CCL22_HUMAN) was 22.3 nM, the Kd (CCL18_HUMAN) was 0.00501 nM and the Kd (CCL1_HUMAN) was 21.3 nM. The Kd (CCL4) was 15.3 nM, the Kd (CCL15_HUMAN) was 5.05 nM and the Kd (CCL11_HUMAN) was 6.03 nM. For the same binder, the Kd (CCL8_HUMAN) was 21.9 nM, the Kd (CCL19_HUMAN) was 0.592 nM and the Kd (CCL3_HUMAN) was 5.3 nM. For the same binder, the Kd (CCL20_HUMAN) was 8.34 nM, the Kd (CCL17_HUMAN) was 0.734 nM and the Kd (CCL5_HUMAN) was 1.74 nM. The Kd (CCL4L1_HUMAN) was 35.4 nM, the Kd (CCL14_HUMAN) was 0.816 nM and the Kd (CCL3L1_HUMAN) was 9.61 nM. The Kd (CCL21_HUMAN) was 6.54 nM, the Kd (CCL7_HUMAN) was 8.66 nM and the Kd (CCL13_HUMAN) was 0.788 nM. The Kd (CCL16_HUMAN) was 0.926 nM, the Kd (CCL27_HUMAN) was 15.1 nM and the Kd (CCL24_HUMAN) was 7.39 nM. The Kd (CCL23_HUMAN) was 6.62 nM.

For B3, the Kd (EVASIN1) was 3 nM and the Kd (EVASIN4 [1]) was 0.03 nM.

Work on B4 yielded a Kd (EVASIN1) of 0.1 nM and a Kd (EVASIN4 [1]) of 0.06 nM.

In the case of B5, the Kd (CXCL3_HUMAN [2]) is reported as 81 nM, the Kd (CXCL1_HUMAN [3]) is reported as 3.25 nM and the Kd (CXCL8_HUMAN) is reported as 4.6 nM.

B6 was tested, and the Kd (EVASIN4 [4]) was 0.43 nM.

With B7 the Kd (EVASIN4 [4]) was 69.6 nM.

Binder B8 has a Kd (CXCL3_HUMAN [5]) of 270 nM and a Kd (CXCL1_HUMAN [6]) of 24 nM.
